Test results taken from US7851436 (WASHINGTON UNIVERSITY IN ST LOUIS, dated 2010).

Columns and labels:
β1 integrin = target: T1, β1 integrin (human, UniProt P05556 21-798); test: GST pull-down from surface-biotinylated Ch-1 lysate, Western blot (FIG. 3K)
T1 construct: whole, on cells; Probed by Western blot in the material pulled out by PIIBNP
Procedure: (§1) Cell Surface labeling and GST Pull-down Assay. Ch-1 cells were incubated with EZ-link Sulfo-NHS-Biotin reagent for 30 mins. according to the product instruction (Sigma). After 3 washes with 0.1 M glycine in PBS, the cells were lysed with a lysis buffer described above. […] The membrane was washed and incubated with antibodies and then incubated with a secondary antibody coupled to horseradish peroxidase. The antibody complex was visualized by enhanced chemiluminescence.

α4 integrin = target: T2, α4 integrin (human, UniProt P13612 34-1032); test: GST pull-down from surface-biotinylated Ch-1 lysate, Western blot (data not shown)
T2 construct: whole, on cells; The antibody lists in the methods name α2, α3 and α5 but not α4
T2 sequence (looked up): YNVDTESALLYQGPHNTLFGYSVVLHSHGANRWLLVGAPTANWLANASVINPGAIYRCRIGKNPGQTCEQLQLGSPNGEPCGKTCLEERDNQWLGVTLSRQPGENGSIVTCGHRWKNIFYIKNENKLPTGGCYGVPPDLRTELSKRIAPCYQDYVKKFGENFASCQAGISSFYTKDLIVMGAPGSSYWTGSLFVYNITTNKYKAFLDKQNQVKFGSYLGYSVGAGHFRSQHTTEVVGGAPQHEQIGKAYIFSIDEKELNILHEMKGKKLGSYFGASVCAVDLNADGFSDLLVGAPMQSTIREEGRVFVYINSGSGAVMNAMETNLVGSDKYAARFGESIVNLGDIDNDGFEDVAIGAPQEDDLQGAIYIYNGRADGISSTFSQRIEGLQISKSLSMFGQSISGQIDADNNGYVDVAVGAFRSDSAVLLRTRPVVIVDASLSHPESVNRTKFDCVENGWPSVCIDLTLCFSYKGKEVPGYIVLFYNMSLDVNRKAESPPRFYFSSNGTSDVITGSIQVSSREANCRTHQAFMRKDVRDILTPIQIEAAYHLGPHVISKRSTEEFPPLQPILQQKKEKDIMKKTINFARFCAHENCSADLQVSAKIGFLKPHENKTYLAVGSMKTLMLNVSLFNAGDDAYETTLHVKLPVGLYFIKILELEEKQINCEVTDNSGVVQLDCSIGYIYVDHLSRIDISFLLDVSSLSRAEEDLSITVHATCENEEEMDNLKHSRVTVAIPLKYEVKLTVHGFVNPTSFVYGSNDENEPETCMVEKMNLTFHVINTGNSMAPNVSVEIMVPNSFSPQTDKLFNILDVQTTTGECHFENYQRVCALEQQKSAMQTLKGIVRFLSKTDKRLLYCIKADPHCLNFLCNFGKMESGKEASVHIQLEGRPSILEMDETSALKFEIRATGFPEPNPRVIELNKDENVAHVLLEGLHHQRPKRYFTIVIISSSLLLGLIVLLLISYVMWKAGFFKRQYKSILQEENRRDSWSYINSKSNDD

α5 integrin = target: T3, α5 integrin (human, UniProt P08648 42-1049); test: as above
T3 construct: whole, on cells
T3 sequence (P08648 42-1049): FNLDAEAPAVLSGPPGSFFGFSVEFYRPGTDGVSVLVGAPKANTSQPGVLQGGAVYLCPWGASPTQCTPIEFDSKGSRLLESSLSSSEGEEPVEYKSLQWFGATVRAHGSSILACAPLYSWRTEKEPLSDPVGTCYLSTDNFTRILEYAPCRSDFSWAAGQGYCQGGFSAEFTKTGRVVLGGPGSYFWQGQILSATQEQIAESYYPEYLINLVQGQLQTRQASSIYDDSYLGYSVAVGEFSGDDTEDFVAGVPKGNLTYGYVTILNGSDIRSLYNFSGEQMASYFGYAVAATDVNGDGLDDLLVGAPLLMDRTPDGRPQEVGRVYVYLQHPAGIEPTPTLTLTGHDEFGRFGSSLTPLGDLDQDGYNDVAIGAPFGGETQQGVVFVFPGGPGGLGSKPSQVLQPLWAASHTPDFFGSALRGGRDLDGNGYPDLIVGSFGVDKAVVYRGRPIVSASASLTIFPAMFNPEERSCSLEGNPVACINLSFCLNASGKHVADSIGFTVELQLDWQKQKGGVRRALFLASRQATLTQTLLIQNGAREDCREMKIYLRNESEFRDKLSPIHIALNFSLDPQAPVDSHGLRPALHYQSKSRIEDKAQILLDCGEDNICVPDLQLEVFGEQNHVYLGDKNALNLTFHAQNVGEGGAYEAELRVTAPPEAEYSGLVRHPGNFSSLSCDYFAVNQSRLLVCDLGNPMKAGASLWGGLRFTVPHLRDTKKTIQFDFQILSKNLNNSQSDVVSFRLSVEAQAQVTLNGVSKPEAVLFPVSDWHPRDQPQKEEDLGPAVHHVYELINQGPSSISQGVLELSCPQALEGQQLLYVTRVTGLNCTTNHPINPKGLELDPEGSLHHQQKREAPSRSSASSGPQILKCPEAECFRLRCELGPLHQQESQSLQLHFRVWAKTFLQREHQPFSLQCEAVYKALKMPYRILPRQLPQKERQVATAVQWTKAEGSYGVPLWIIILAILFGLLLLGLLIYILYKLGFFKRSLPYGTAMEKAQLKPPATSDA
Procedure: as §1

T1 sequence (P05556 21-798): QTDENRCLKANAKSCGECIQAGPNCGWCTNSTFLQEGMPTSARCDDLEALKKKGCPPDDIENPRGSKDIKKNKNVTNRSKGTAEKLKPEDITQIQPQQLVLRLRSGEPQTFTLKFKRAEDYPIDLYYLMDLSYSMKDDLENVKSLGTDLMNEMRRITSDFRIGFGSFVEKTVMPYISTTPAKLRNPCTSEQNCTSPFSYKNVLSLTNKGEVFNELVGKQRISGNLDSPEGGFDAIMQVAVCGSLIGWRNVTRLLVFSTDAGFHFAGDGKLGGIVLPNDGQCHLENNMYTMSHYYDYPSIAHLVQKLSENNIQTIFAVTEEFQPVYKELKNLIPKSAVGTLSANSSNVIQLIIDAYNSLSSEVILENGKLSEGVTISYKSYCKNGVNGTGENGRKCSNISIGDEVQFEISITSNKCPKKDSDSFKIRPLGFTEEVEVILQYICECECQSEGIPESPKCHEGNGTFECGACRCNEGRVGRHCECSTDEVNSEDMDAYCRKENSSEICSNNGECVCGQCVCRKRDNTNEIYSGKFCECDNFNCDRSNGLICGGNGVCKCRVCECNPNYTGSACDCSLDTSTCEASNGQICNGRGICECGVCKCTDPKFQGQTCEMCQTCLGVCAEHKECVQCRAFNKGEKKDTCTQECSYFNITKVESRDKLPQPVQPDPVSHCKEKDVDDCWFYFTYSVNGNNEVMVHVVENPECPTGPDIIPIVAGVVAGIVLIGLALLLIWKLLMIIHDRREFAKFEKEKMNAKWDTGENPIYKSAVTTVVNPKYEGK

binding result (β1 integrin): no binding
binding result (α4 integrin): no binding
binding result (α5 integrin): no binding
B1: GST-PIIBNP (GST fusion of human Type IIB collagen amino propeptide, exons 3-8) (ligand)
chain: not shown
notes: domain: PIIBNP (exons 3-8); Expressed in E. coli BL21 (DE3) as a GST fusion; also called Type IIB propeptide; PPIIBNP; not shown: glutathione S-transferase (GST) tag encoded by the pGEX-4T-2 vector, thrombin-cleavable
